Patent US20250360220A1, “REGULATION OF TAU USING PROTEIN-LIKE POLYMERS AND USES THEREOF” (NORTHWESTERN UNIVERSITY, priority 2022, published 2025)

How the values were obtained:
Circular dichroism = format: physicochemical; details: 37° C.; for CD conformation of free peptides: before and after addition of heparin; for CD conformation of PLPs: Tris buffer pH 7.4
Procedure: The proteomimetic similarities were further investigated using circular dichroism. Samples tested included K18 Tau, PLPs having SEQ ID: 4, SEQ ID: 2, and SEQ ID: 10, as well as said PLPs with K18 Tau. Each of these samples were dissolved in Tris buffer (10 mM Tris, 50 mM NaF, 0.5 mM dithiothreitol) and pH was adjusted to 7.4. Samples were tested with and without the addition of heparin. For samples containing heparin, samples were incubated in the presence of 10 μM heparin sodium salt for 24 hours. Polymers and peptides were run at 37° C., at a concentration of 3 mg/10 ml and K18 Tau was run at 10 uM. Parameters were: 1 mm quartz cuvette, continuous scan at 10 nm/min over 260 to 200 nm, 3 acquisitions averaged for one trace.

K18 Tau = molecular target: T1, K18 Tau (Homo sapiens, UniProt P10636); assay: Tau Kinetics Thioflavin T plate reader assay; format: biochemical; details: for PLP or Pep/Tau %: Avg P amplitude divided by Avg Tau amplitude x 100; for PLP or Pep 10 hr (average amplitude, fluorescent intensity readout, of the Tau trace treated with that compound) / PLP or Pep 15 hr (average amplitude) / PLP or Pep 20 hr (average amplitude): K18 Tau 10 μM, heparin, thioflavin T, PBS; for Avg P Amplitude: average of the amplitudes at 10, 15 and 20 hr; for % amp change: change in amplitude relative to control Tau
T1 construct: K18 Tau was first expressed, collected, and purified; His tag (cleaved yes); made in house
T1 sequence (P10636 561-685 limits assumed): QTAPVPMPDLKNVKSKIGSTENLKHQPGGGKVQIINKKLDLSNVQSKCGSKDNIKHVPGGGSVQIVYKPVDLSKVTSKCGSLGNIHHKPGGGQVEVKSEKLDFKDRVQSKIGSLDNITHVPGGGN
Procedure: (§1) Tau Kinetics Thioflavin T Plate Reader Assay Protocol: First, controls and the effects of varying concentrations of K18 Tau were examined (FIG. 24). In FIG. 24, 1X Tau refers to 10 μM K18 Tau final concentration in the well with 100 μl total volume (i.e., 0.5× Tau refers to 5 μM K18 Tau and 2× Tau refers to 20 μM K18 Tau). Before PLPs were added to K18 Tau, the concentration at which the mimetic aggregative polymers would not activate Thioflavin T was evaluated. Based on the results depicted in FIG. 25, a PLP concentration of 1 μM was selected for further experimentations. […] Given the goal to investigate effects of the PLPs, it was determined that too high of a concentration could easily be adjusted, whereas too low of a concentration could result in a false negative with respect to impact.
PLPs incorporating SEQ ID: 4 (“TP4”), SEQ ID: 2 (“TP7”), or SEQ ID: 10 (“TP12”) as peptide sidechains were tested. The PLPs, K18 Tau (10 μM) and Thio T (Sigma) at a final concentration of 10 μM was added, and aggregation was induced by the addition of a freshly prepared heparin sodium salt solution (Santa Cruz) at a final concentration of 44 μg/ml. For non-induced controls, assay buffer was added in place of heparin solution to a final volume of 100 μl per well. Aggregation reactions were carried out at 37° C. with continuous shaking and monitored via ThT fluorescence (excitation, 444 nm; emission, 485 nm; cutoff, 480 nm) in a Spectramax M5 microplate reader (Molecular Devices). Readings were taken every 5 min for a minimum of 24 h.
Table C. Summary of results depicted in FIGS. 26, 28, and 29 in the event the graphical representations are difficult to ascertain. Values are rounded to the nearest whole number. Tau 10 hr refers to the average amplitude (fluorescent intensity readout) of an n=6 of the control Tau (meaning no peptide or polymer added, just heparin, thioflavin T, and PBS) trace at 10 hour. The same applies to Tau 15 hr and Tau 20 hr. Avg Tau amplitude refers to the average of the amplitudes at 10, 15, and 20 hr in the previous columns. As Tau is the control for each individual plate, and these readings were done on three separate plates, there are 3 different sets of average amplitudes. Similar to the aforementioned, PLP or Pep 10 hr refers to the average amplitude (n=6 for PLP and n=3 for peptide) of the Tau trace treated with that compound at 10 hours. Avg P amplitude refers to the average of the amplitude at the 3 times, or the average of the 3 previous columns. PLP or Pep/Tau % is the result of dividing the Avg P amplitude by Avg Tau amplitude and multiplying by 100. % amp change refers to the change in amplitude given by subtracting Tau average amplitude from P average amplitude and dividing by Tau average amplitude and multiplying by 100.

[1] = Liquid-liquid phase separation (LLPS) of rhodamine labeled PLPs; format: physicochemical
Procedure: Solutions were dissolved in HEPES buffer: 10 mM HEPES buffer (pH 7.4) with 0.1 mM EDTA and 2 mM DTT, Media buffer: Dulbecco Modified Eagles Medium (high glucose) with 2 mM L-glutamine with 10% Fetal Bovine Serum, 1% Penicillin/Streptomycin, or water. Different crowding agents were also tested using HEPES buffer—PEG and heparin. For heparin, stock solutions of 10 μM of each rhodamine labeled PLP (using either SEQ ID: 4 or SEQ ID: 7 as peptide monomers) and 30 μM of heparin sodium salt were prepared in buffer and kept refrigerated. Before experiments, solutions were given at least 30 min to come to room temperature and experiments were carried out at room temperature. In the microscope room, 20 μL of PLP was added to 5 μL of heparin and mixed gently in a microcentrifuge tube. 5 μL of solution was immediately pipetted onto Fisherbrand glass microscope slides and coverslip applied. All reactions were visualized on Olympus BX53 Fluorescent Microscope using the 581 nm laser to monitor the rhodamine, as well as brightfield. LLPS occurred within 60 min of initiation.

[2] = test system: Mouse striatal cells HdhQ7/7; assay: Cell permeability assay with rhodamine labeled PLPs (confocal imaging); format: cell-based; details: incubated with the cells for 24 hours
Procedure: Mouse striatal cells HdhQ7/7 from Coriell Institute were plated in 4-chamber 35 mm round glass-bottom dishes at a density of 50,000 per well. Cells were incubated for 24 hours in a 5% CO2 atmosphere at 33° C. Rhodamine labeled PLPs, rhodamine dye, and vehicle control in 10% FBS DMEM medium without phenol red were incubated with the cells for 24 hours, respectively. The cell nuclei (stained with Hoechst) were accomplished using a 405 nm laser with a 15% laser power. The cell membrane (stained with Wheat Germ Agglutinin, Alexa Fluor 488 Conjugate) was accomplished using a 488 nm laser with a 12% laser power. Cell imaging for Rhodamine fluorescence was accomplished using a 581 nm laser with an 8% laser power.

[3] = Concentration dependence of polymer activation of Thioflavin T (no Tau); details: 1 μM PLP, no Tau (FIG. 25)
Source text: FIG. 25: Concentration dependence of polymer activation of Thioflavin T. TP4: PLP homopolymer incorporating SEQ ID: 4 as peptide sidechains. TP7: PLP homopolymer incorporating SEQ ID: 2 as peptide sidechains. TP4 and TP7 controls: PLP homopolymer, thioflavin T, no heparin, and PBS. The remainder of controls were at baseline and were removed from this FIG. 25 to improve readability. ThioT control: no Tau, no heparin, thioflavin T and PBS. ThioT heparin control: no Tau, no PLPs, thioflavin T, heparin, and PBS. n=3.
as §1

[4] = STEM / dry state TEM of PLP homopolymers; format: physicochemical; details: prepared in H2O
Procedure: Using standard STEM protocols, PLPs having SEQ ID: 2 or SEQ ID: 4 as peptide monomers were prepared in H2O and visualized. […] Further, from the results depicted in FIG. 17, the homopolymer the beta sheet forming nature was confirmed. After putting the PLPs in HEPES LLPS buffer and heating to 37° C. (i.e., body temperature), a time course established the fibrilization of the polymer on dry state TEM. The same fibrilization was seen on purified K18 Tau protein 24 hours after incubation with heparin in PBS as depicted in FIG. 19. The remarkably similar characteristics was a testament to the mimetic capabilities of the PLP.

[5] = HEPES buffer with heparin, room temperature

Substance	PLP or Pep/Tau % (K18 Tau; 1 μM PLP/Pep) [%]	PLP or Pep 10 hr (average amplitude, fluorescent intensity readout, of the Tau trace treated with that compound) (K18 Tau; 1 μM PLP/Pep)	PLP or Pep 15 hr (average amplitude) (K18 Tau; 1 μM PLP/Pep)	PLP or Pep 20 hr (average amplitude) (K18 Tau; 1 μM PLP/Pep)	Avg P Amplitude (K18 Tau; 1 μM PLP/Pep)	% amp change (K18 Tau; 1 μM PLP/Pep) [%]	PLP or Pep/Tau % (K18 Tau; 10 μM PLP/Pep) [%]	PLP or Pep 10 hr (average amplitude, fluorescent intensity readout, of the Tau trace treated with that compound) (K18 Tau; 10 μM PLP/Pep)	PLP or Pep 15 hr (average amplitude) (K18 Tau; 10 μM PLP/Pep)	PLP or Pep 20 hr (average amplitude) (K18 Tau; 10 μM PLP/Pep)	Avg P Amplitude (K18 Tau; 10 μM PLP/Pep)	% amp change (K18 Tau; 10 μM PLP/Pep) [%]	CD conformation of free peptides (Circular dichroism)	CD conformation of PLPs (Circular dichroism; after addition of heparin)	CD conformation of PLPs (Circular dichroism; before heparin was added)	Liquid-liquid phase separation [1, 5]	Capability to permeate the striatal cells [2]	Thioflavin T signal of the polymer [3]	Conformation by STEM [4]	other results
TP4: PLP generated from peptide monomers characterized by SEQ ID: 4 (VQIINKRR)	143	730	936	961	876	44	–	–	–	–	–	–	–	beta sheet formation	random coil formations	capable of liquid-liquid phase separation	demonstrated the capability to permeate the striatal cells	significant signal	beta sheet conformations	Liquid-liquid phase separation ([1]; HEPES buffer with PEG as crowding agent): induce LLPS phase condensates
TP7: PLP generated from peptide monomers characterized by SEQ ID: 2 (DRVQIVYKRR)	110	633	715	672	673	11	–	–	–	–	–	–	–	beta sheet formation	random coil formations	capable of liquid-liquid phase separation	demonstrated the capability to permeate the striatal cells	negligible signal	beta sheet conformations	–
TP12: PLP generated from peptide monomers characterized by SEQ ID: 10 (VQPINK)	34	116	129	143	129	−69	9	36	37	36	36	−91	–	beta sheet formation	random coil formations	–	–	–	–	Effect of inhibitor polymer on fibril formation of K18 Tau (K18 Tau; two concentrations, 1 μM and 10 μM, with heparin (FIG. 29)): significantly prevented fibril formation of K18 Tau

Continued, in another order:

PLP or Pep/Tau % (K18 Tau; 1 μM PLP/Pep) [%]	PLP or Pep 10 hr (average amplitude, fluorescent intensity readout, of the Tau trace treated with that compound) (K18 Tau; 1 μM PLP/Pep)	PLP or Pep 15 hr (average amplitude) (K18 Tau; 1 μM PLP/Pep)	PLP or Pep 20 hr (average amplitude) (K18 Tau; 1 μM PLP/Pep)	Avg P Amplitude (K18 Tau; 1 μM PLP/Pep)	% amp change (K18 Tau; 1 μM PLP/Pep) [%]	PLP or Pep/Tau % (K18 Tau; 10 μM PLP/Pep) [%]	PLP or Pep 10 hr (average amplitude, fluorescent intensity readout, of the Tau trace treated with that compound) (K18 Tau; 10 μM PLP/Pep)	PLP or Pep 15 hr (average amplitude) (K18 Tau; 10 μM PLP/Pep)	PLP or Pep 20 hr (average amplitude) (K18 Tau; 10 μM PLP/Pep)	Avg P Amplitude (K18 Tau; 10 μM PLP/Pep)	% amp change (K18 Tau; 10 μM PLP/Pep) [%]	Substance	CD conformation of free peptides (Circular dichroism)	CD conformation of PLPs (Circular dichroism; after addition of heparin)	CD conformation of PLPs (Circular dichroism; before heparin was added)	Liquid-liquid phase separation [1, 5]	Capability to permeate the striatal cells [2]	Thioflavin T signal of the polymer [3]	Conformation by STEM [4]	other results
135	417	411	545	458	11	126	395	448	438	427	4	DRVQIVYKRR [P7]	beta sheet formation	–	–	–	–	–	–	–
177	588	558	657	601	46	129	417	497	395	436	6	VQIINKRR [P4]	beta sheet formation	–	–	–	–	–	–	–
182	605	555	693	618	50	140	584	413	424	474	15	VQPINK [P12]	beta sheet formation	–	–	–	–	–	–	–
